Reference: the supplement of paper PMC12667976
± gives the standard error.

B1: library; numbered along this chain (parent)
chain: MATDAALRRLLRLHRTEIAVAVDSAFPLLHALADHDVVPEDKFQETLHLKEKEGCPQAFHALLSWLLTQDSTAILDFWRVLFKDYNLERYGRLQPILDSFPKDVDLSQPRKGRKPPAVPKALVPPPRLPTKRKASEEARAAAPAALTPRGTASPGSQLKAKPPKKPESSAEQQRLPLGNGIQTMSASVQRAVAMSSGDVPGARGAVEGILIQQVFESGGSKKCIQVGGEFYTPSKFEDSGSGKNKARSSSGPKPLVRAKGAQGAAPGGGEARLGQQGSVPAPLALPSDPQLHQKNEDECAVCRDGGELICCDGCPRAFHLACLSPPLREIPSGTWRCSSCLQATVQEVQPRAEEPRPQEPPVETPLPPGLRSAGEEVRGPPGEPLAGMDTTLVYKHLPAPPSAAPLPGLDSSALHPLLCVGPEGQQNLAPGARCGVCGDGTDVLRCTHCAAAFHWRCHFPAGTSRPGTGLRCRSCSGDVTPAPVEGVLAPSPARLAPGPAKDDTASHEPALHRDDLESLLSEHTFDGILQWAIQSMARPAAPFPS

Variants of: B1
Assay: AIRE transcriptional activation functional score (insulin promoter-GFP; nonsense median 0, synonymous median 1) (normalised score); higher = higher AIRE activity (more reporter activation)
Conditions: with insulin promoter-GFP reporter in HEK293
Experimental: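 Deep mutational scan of full-length human AIRE (codon-optimized cDNA, DT-POPCode NNN libraries over three regions) integrated at a Bxb1 landing pad in HEK293 cells carrying an insulin core promoter-GFP reporter at a Flp-In site. Cells were sorted for the top 10% GFP about 14 days after transfection. Variant frequency log-ratios (select vs non-select, TileSeq) were rescaled so that the nonsense median is 0 and the synonymous median is 1, then averaged over biological replicates.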

Variant	AIRE transcriptional activation functional score
R8Y	-0.316 ± 0.91
G91D	-0.369 ± 1.1
S338P	0.56 ± 0.23
K42E	-0.598 ± 0.44
P280L	1.28 ± 0.27
I528N	0.204 ± 0.097
I528A	0.0102 ± 0.18
R174W	2.14 ± 0.036
R371V	1.27 ± 0.094
H319C	1.43 ± 0.15
L106T	0.979 ± 0.18
P360I	1.13 ± 0.35
C475D	-0.0916 ± 0.039
F26K	-0.369 ± 0.25
A505S	0.985 ± 0.31
P365M	1.49 ± 0.068
P365L	1.07 ± 0.28
C472P	-0.298 ± 0.19
P384N	0.179 ± 0.064
P384M	1.35 ± 0.079
C337W	0.733 ± 0.042

Variant	AIRE transcriptional activation functional score
C337P	1.47 ± 0.19
K221Y	0.0318 ± 0.63
A246T	0.841 ± 0.41
A246W	1.47 ± 0.047
K159Y	1.33 ± 0.18
Q276G	1.39 ± 0.29
Q276A	1.12 ± 0.1
G260F	0.949 ± 0.066
E353N	0.963 ± 0.22
E353W	1.17 ± 0.028
E353H	0.837 ± 0.14
G387R	1.1 ± 0.41
P95V	1.12 ± 0.31
L11N	0.0103 ± 0.076
Q69V	-0.0416 ± 0.26
Q69A	0.0258 ± 0.39
L428M	1.32 ± 0.089
P331Q	0.548 ± 0.13
N295R	0.795 ± 0.31
T344K	1.16 ± 0.08
L122I	0.612 ± 0.24

Variant	AIRE transcriptional activation functional score
L122N	0.335 ± 0.67
L122C	1.17 ± 0.21
L122H	0.431 ± 0.75
E136H	1.15 ± 0.23
H507R	0.823 ± 0.24
H507D	0.604 ± 0.13
L29P	-0.138 ± 0.54
A452C	1.13 ± 0.14
A152K	0.993 ± 0.36
Q262A	1.2 ± 0.35
Q262H	0.819 ± 0.2
T147R	1.03 ± 0.44
T147P	0.125 ± 0.5
D23S	0.041 ± 0.23
D23K	-0.339 ± 0.073
A343M	1.59 ± 0.066
G180M	0.445 ± 0.06
G180P	-1.38 ± 0.43
K120A	0.814 ± 0.64
K120H	0.932 ± 0.7
K120E	0.943 ± 0.27

Variant	AIRE transcriptional activation functional score
T391M	1.02 ± 0.17
T391F	1.41 ± 0.22
T391E	0.539 ± 0.13
T391I	1.29 ± 0.07
V279K	0.637 ± 0.24
V279W	1.4 ± 0.13
P109G	0.279 ± 0.24
E329C	1.46 ± 0.21
E329I	1.46 ± 0.24
H512D	0.939 ± 0.065
H512I	1.1 ± 0.11
S491Y	1.35 ± 0.032
S491E	1.06 ± 0.16
A144S	0.773 ± 0.41
G498E	1.1 ± 0.1
H48N	0.738 ± 0.44
P124A	0.614 ± 0.46
P124S	1.08 ± 0.38
R378V	0.869 ± 0.27
G462I	0.802 ± 0.27
